Experimental data as given in paper PMC5183740.

Key:
[1] = molecular target: SA-HA2 (streptavidin core fused to residues 76-130 of HA2 of A/PARIS/2590/2009 (H1N1)) (Streptomyces avidinii | influenza A virus A/PARIS/2590/2009 (H1N1)); assay: SDS-PAGE of unheated samples
[2] = molecular target: SA-NP (streptavidin core fused to the nucleoprotein NP of A/PARIS/2590/2009 (H1N1)) (Streptomyces avidinii | influenza A virus A/PARIS/2590/2009 (H1N1)); assay: SDS-PAGE of unheated samples

Substance: SA-HA2 (streptavidin core fused to residues 76-130 of HA2 of A/PARIS/2590/2009 (H1N1))
- stoichiometry N [1]: 4

Substance: SA-NP (streptavidin core fused to the nucleoprotein NP of A/PARIS/2590/2009 (H1N1))
- stoichiometry N [2]: 4
